Changes are numbered by the printed parent chain. One block for each binder: values may come before it.
Experiments:
[1] = target: T1, anti-VEGF/ANG2 antibody (IgG1 subclass with mutations P329G/L234A/L235A/I253A/H310A/H435A); assay: ELISA assay C, tracer FcγRI-Dig, target 2 ng/mL
T1 construct: Format of the bispecific antibody not described; Positions are EU numbers, not positions on the UniProt entry; also called sample 1; antibody 1

[2] = target: T2, anti-VEGF/ANG2 antibody (wild-type IgG1 subclass) (UniProt P01857-1 1-330 = IgG part); assay: ELISA assay C, tracer FcγRI-Dig, target 2 ng/mL
T2 construct: also called sample 5; antibody 5

[3] = target: T3, anti-VEGF/ANG2 antibody (IgG1 subclass with mutations P329G/L234A/L235A); assay: ELISA assay C, tracer FcγRI-Dig, target 2 ng/mL
T3 construct: Positions are EU numbers; also called sample 2; antibody 2

[4] = target: T4, anti-P-Selectin antibody (IgG4 subclass with mutations S228P/L235E); assay: ELISA assay C, tracer FcγRI-Dig, target 2 ng/mL
T4 construct: Positions are EU numbers; also called sample 4; antibody 4

[5] = target: T5, anti-IGF-1R antibody (IgG1 subclass with mutations I253A/H310A/H435A); assay: ELISA assay C, tracer FcγRI-Dig, target 2 ng/mL
T5 construct: Positions are EU numbers; also called sample 3; antibody 3

[6] = target: T1, anti-VEGF/ANG2 antibody (IgG1 subclass …); assay: ELISA assay C, tracer FcγRI-Dig, target 0 ng/mL (blank)
[7] = target: T2, anti-VEGF/ANG2 antibody (wild-type IgG1 …); assay: as above
[8] = target: T3, anti-VEGF/ANG2 antibody (IgG1 subclass …); assay: as above
[9] = target: T4, anti-P-Selectin antibody (IgG4 subclass …); assay: as above
[10] = target: T5, anti-IGF-1R antibody (IgG1 subclass …); assay: as above
[11] = target: T1, anti-VEGF/ANG2 antibody (IgG1 subclass …); assay: ELISA assay B, tracer M1.7.10-Dig, target 100 ng/mL
Description: (§1) Biotinylated anti-PG Fc-region antibody or biotinylated anti-AAA Fc-region antibody, respectively, was bound to the wells of a streptavidin-coated multi-well plate (SA-MTP) to produce a capture plate. Excess of unbound antibody was removed by washing. Sample/standard antibodies spiked in human and cynomolgus monkey serum (10% final concentration) was added to wells of the SA-MTP multi-well plate coated with the capture plate and incubated for 1 hour at room temperature. After washing, the wells were incubated with digoxygenylated anti-human kappa antibody M1.7.10 (see e.g. WO 2011/048043, incorporated herein by reference). After washing the bound digoxygenylated anti-human kappa antibody complex was incubated with a horseradish peroxidase (HRP) labelled anti-digoxygenin antibody. After another washing step, an ABTS solution was added to the wells and incubated. The product of the color reaction was measured by Elisa reader at 405 nm wavelength (reference wavelength: 490 nm). Absorbance values of each sample or standard were determined in triplicates.

[12] = target: T2, anti-VEGF/ANG2 antibody (wild-type IgG1 …); assay: as above
Description: as §1

[13] = target: T3, anti-VEGF/ANG2 antibody (IgG1 subclass …); assay: as above
Description: as §1

[14] = target: T4, anti-P-Selectin antibody (IgG4 subclass …); assay: as above
Description: as §1

[15] = target: T5, anti-IGF-1R antibody (IgG1 subclass …); assay: as above
Description: as §1

[16] = target: T1, anti-VEGF/ANG2 antibody (IgG1 subclass …); assay: ELISA assay B, tracer M1.7.10-Dig, target 25 ng/mL
Description: as §1

[17] = target: T2, anti-VEGF/ANG2 antibody (wild-type IgG1 …); assay: ELISA assay B, tracer M1.7.10-Dig, target 25 ng/mL
Description: as §1

[18] = target: T3, anti-VEGF/ANG2 antibody (IgG1 subclass …); assay: ELISA assay B, tracer M1.7.10-Dig, target 25 ng/mL
Description: as §1

[19] = target: T4, anti-P-Selectin antibody (IgG4 subclass …); assay: ELISA assay B, tracer M1.7.10-Dig, target 25 ng/mL
Description: as §1

[20] = target: T5, anti-IGF-1R antibody (IgG1 subclass …); assay: ELISA assay B, tracer M1.7.10-Dig, target 25 ng/mL
Description: as §1

[21] = target: T3, anti-VEGF/ANG2 antibody (IgG1 subclass …); assay: ELISA assay C, tracer FcγRI-Dig, target 50 ng/mL
[22] = target: T4, anti-P-Selectin antibody (IgG4 subclass …); assay: ELISA assay C, tracer FcγRI-Dig, target 50 ng/mL
[23] = target: T3, anti-VEGF/ANG2 antibody (IgG1 subclass …); assay: ELISA assay B, tracer M1.7.10-Dig, target 3 ng/mL
Description: as §1

signal [OD405 nm] [1]: 0.077 OD405 nm
signal [OD405 nm] [2]: 0.077 OD405 nm
signal [OD405 nm] [3]: 0.072 OD405 nm
signal [OD405 nm] [4]: 0.067 OD405 nm
signal [OD405 nm] [5]: 0.082 OD405 nm
signal [OD405 nm] [6]: 0.077 OD405 nm
signal [OD405 nm] [7]: 0.069 OD405 nm
signal [OD405 nm] [8]: 0.064 OD405 nm
signal [OD405 nm] [9]: 0.077 OD405 nm
signal [OD405 nm] [10]: 0.069 OD405 nm
signal [OD405 nm] [11]: 0.052 OD405 nm
signal [OD405 nm] [12]: 0.061 OD405 nm
signal [OD405 nm] [13]: 0.21 OD405 nm
signal [OD405 nm] [14]: 0.051 OD405 nm
signal [OD405 nm] [15]: 2.9 OD405 nm
signal [OD405 nm] [16]: 0.044 OD405 nm
signal [OD405 nm] [17]: 0.047 OD405 nm
signal [OD405 nm] [18]: 0.092 OD405 nm
signal [OD405 nm] [19]: 0.048 OD405 nm
signal [OD405 nm] [20]: 2.89 OD405 nm
signal [OD405 nm] [21]: 0.057 OD405 nm
signal [OD405 nm] [22]: 0.054 OD405 nm
signal [OD405 nm] [23]: 0.044 OD405 nm
B1: anti-AAA variant Fc-region antibody M1.6.22 (antibody, V domains shown)
VH: EVQLVESGGDLVKPGGSLKLSCAASGFTFSSYGMSWVRQTPDKRLEWVATISSGGSYIYYPDSVKGRFTISRDNAKNTLYLQMSSLKSEDTAMYYCARLGMITTGYAMDYWGQGTSVTVSS
VL: DVLMTQTPLSLPVSLGDQASISCRSSQTIVHSTGHTYLEWFLQKPGQSPKLLIYKVSNRFSGVPDRFSGSGSGTDFTLKISRVEAEDLGVYYCFQGSHVPYTFGGGTKLEIK
notes: Murine variable domains; also called M1.6.22-Bi

signal [OD405 nm] [1]: 1.17 OD405 nm
signal [OD405 nm] [2]: 1.19 OD405 nm
signal [OD405 nm] [3]: 1.22 OD405 nm
signal [OD405 nm] [4]: 1.19 OD405 nm
signal [OD405 nm] [5]: 1.26 OD405 nm
signal [OD405 nm] [6]: 1.18 OD405 nm
signal [OD405 nm] [7]: 1.2 OD405 nm
signal [OD405 nm] [8]: 1.23 OD405 nm
signal [OD405 nm] [9]: 1.19 OD405 nm
signal [OD405 nm] [10]: 1.22 OD405 nm
signal [OD405 nm] [11]: 0.035 OD405 nm
signal [OD405 nm] [12]: 0.043 OD405 nm
signal [OD405 nm] [13]: 0.216 OD405 nm
signal [OD405 nm] [14]: 0.048 OD405 nm
signal [OD405 nm] [15]: 0.05 OD405 nm
signal [OD405 nm] [16]: 0.035 OD405 nm
signal [OD405 nm] [17]: 0.043 OD405 nm
signal [OD405 nm] [18]: 0.213 OD405 nm
signal [OD405 nm] [19]: 0.047 OD405 nm
signal [OD405 nm] [20]: 0.046 OD405 nm
signal [OD405 nm] [21]: 1.21 OD405 nm
signal [OD405 nm] [22]: 1.15 OD405 nm
signal [OD405 nm] [23]: 0.165 OD405 nm
B2: anti-PG variant Fc-region antibody M1.3.17 (antibody, V domains shown)
VH: EVKLLESGGGLVQPGGSLKLSCAASGIDFRRYWMNWVRQAPGKGLEWIGEIDPDSSTINYTPSLKDKFIISRDNAKNTMYLQMRKVRSEDTALYYCARPYDYGAWFAYWGQGTLVTVSA
VL: QAVVTQESALTTSPGETVTLTCRSTTGAVTTSNYANWVQEKPDHLFTGLIGGTNKRAPGVPARFSGSLIGDKAALTITGAQTEDEAIYFCALWYSDHWVFGGGTKLTVL
notes: Monomeric, bivalent full-length antibody with murine variable domains; Biotinylated when used as capture antibody; also called anti-PG antibody clone 1.3.17; M1.3.17-Bi

signal [OD405 nm] [1]: 0.085 OD405 nm
signal [OD405 nm] [2]: 0.058 OD405 nm
signal [OD405 nm] [3]: 0.093 OD405 nm
signal [OD405 nm] [4]: 0.056 OD405 nm
signal [OD405 nm] [5]: 0.074 OD405 nm
signal [OD405 nm] [6]: 0.076 OD405 nm
signal [OD405 nm] [7]: 0.073 OD405 nm
signal [OD405 nm] [8]: 0.092 OD405 nm
signal [OD405 nm] [9]: 0.076 OD405 nm
signal [OD405 nm] [10]: 0.086 OD405 nm
signal [OD405 nm] [11]: 0.057 OD405 nm
signal [OD405 nm] [12]: 0.047 OD405 nm
signal [OD405 nm] [13]: 3.23 OD405 nm
signal [OD405 nm] [14]: 0.05 OD405 nm
signal [OD405 nm] [15]: 0.098 OD405 nm
signal [OD405 nm] [16]: 0.047 OD405 nm
signal [OD405 nm] [17]: 0.041 OD405 nm
signal [OD405 nm] [18]: 3.16 OD405 nm
signal [OD405 nm] [19]: 0.04 OD405 nm
signal [OD405 nm] [20]: 0.048 OD405 nm
signal [OD405 nm] [21]: 0.094 OD405 nm
signal [OD405 nm] [22]: 0.066 OD405 nm
signal [OD405 nm] [23]: 2.51 OD405 nm
B3: anti-PG variant Fc-region antibody M1.7.24 (monomeric, bivalent) (antibody, V domains shown)
VH: B2 VH with I27F, R30S, D52T, M79L, R84I, A97V, Y108S
VL: B2 VL with T25S, D96N
notes: Full-length Y-shaped antibody with murine variable domains; Biotinylated when used as capture antibody; also called anti-PG antibody clone 1.7.24; M1.7.24-Bi
